Where no end group is shown, it is not given here.
What was measured:
[1] = target: T1, wild-type Homer1 EVH1 domain (1-118) (Mus musculus, UniProt Q9Z2Y3 1-118); assay: BLI
T1 sequence (looked up): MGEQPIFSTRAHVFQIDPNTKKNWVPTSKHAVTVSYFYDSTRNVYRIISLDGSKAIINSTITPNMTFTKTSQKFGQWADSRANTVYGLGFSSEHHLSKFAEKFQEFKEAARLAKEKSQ

[2] = target: T2, Homer1 EVH1 domain (1-118) M65I (Mus musculus, UniProt Q9Z2Y3 1-118, M65I); assay: BLI
T2 sequence (looked up): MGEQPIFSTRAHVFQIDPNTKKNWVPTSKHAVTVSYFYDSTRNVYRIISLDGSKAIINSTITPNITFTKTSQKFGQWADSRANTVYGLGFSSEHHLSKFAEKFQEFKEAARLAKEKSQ

[3] = target: T3, Homer1 EVH1 domain (1-118) S97L (Mus musculus, UniProt Q9Z2Y3 1-118, S97L); assay: BLI
T3 sequence (looked up): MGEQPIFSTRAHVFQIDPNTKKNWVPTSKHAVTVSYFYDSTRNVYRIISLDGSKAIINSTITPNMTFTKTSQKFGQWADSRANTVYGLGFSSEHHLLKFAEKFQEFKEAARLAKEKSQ

[4] = target: T1, wild-type Homer1 EVH1 domain (1-118); assay: NMR titration
[5] = target: T2, Homer1 EVH1 domain (1-118) M65I; assay: NMR titration
[6] = target: T3, Homer1 EVH1 domain (1-118) S97L; assay: NMR titration

Measured: binding result

LVPPPEEFANG (also: biotinylated, site not given here) [biotinylated Shank3 peptide ligand LVPPPEEFANG]
binds: [1] | [2] | [3]

LVPPPEEFANG [short Shank3 peptide LVPPPEEFANG]
binds: [4] | [5] | [6]

Reference: article doi:10.64898/2025.12.17.694870 (bioRxiv, 2025)
